According to US20260284221 (published 2026):
Positions count from the first letter of the chain named.

Columns and labels:
Assay in all cases: BLI pH 7.4
Rat Trop2 = target: T1, Rat Trop2 (rat, UniProt Q6P9Z6)
T1 chain: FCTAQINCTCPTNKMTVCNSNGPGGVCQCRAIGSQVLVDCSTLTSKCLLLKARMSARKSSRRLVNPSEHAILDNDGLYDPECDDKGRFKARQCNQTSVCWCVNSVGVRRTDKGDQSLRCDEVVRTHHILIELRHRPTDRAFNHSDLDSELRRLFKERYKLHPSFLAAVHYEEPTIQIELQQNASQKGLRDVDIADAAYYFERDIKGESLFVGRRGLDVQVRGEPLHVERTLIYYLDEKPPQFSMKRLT

Rhesus macaque Trop2 = target: T2, Rhesus macaque Trop2 (rhesus macaque)
T2 chain: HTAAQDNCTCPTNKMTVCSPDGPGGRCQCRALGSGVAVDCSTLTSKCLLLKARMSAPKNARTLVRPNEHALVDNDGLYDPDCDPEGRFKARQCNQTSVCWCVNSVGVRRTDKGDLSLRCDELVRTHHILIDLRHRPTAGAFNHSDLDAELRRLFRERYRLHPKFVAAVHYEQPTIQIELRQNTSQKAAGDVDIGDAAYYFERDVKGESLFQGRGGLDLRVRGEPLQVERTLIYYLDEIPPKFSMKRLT

Human Trop2 = target: T3, Human Trop2 (human, UniProt P09758)
T3 chain: T2 chain with V36M, N67S, V204I

Mouse Trop2 = target: T4, Mouse Trop2 (mouse, UniProt Q8BGV3)
T4 chain: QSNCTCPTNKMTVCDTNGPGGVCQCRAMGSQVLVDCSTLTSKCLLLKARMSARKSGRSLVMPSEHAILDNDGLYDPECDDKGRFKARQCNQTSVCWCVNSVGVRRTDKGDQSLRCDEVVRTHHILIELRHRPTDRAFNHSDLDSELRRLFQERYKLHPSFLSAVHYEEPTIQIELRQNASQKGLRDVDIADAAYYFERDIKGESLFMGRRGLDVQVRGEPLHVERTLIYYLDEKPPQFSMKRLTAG

binding result (Rat Trop2): no binding | Kd (Rhesus macaque Trop2): < 0.001 nM | Kd (Human Trop2): 22.6 nM | binding result (Mouse Trop2): no binding
B1: L2-conjugated anti-Trop2 antibody (IB12) (antibody, V domains shown)
VH: EVQLVESGGGLVQPGGSLRLSCAASGFTFNNYAMSWVRQAPGKGLEWVSTISSDGTYTYYADSVKGRFTISRDNSKNTLYLQMNSLRAEDTAVYYCARHPPSYYYAFDYWGQGTTLTVSS
VL: EIVLTQSPGTLSLSPGERATLSCRASESVDSYGNSFIHWYQQKPGQAPRLLIYLASNLESGIPDRFSGSGSGTDFTLTISRLEPEDFAVYYCQQNNEDLWTFGGGTKLEIK
modifications: conjugated with L2 linker; heavy constant SEQ2, light constant SEQ4
